Laboratory results published in article PMC8602628, “Phosphorylation activates the yeast small heat shock protein Hsp26 by weakening domain contacts in the oligomer ensemble” (Nature Communications, 2021).
Residue numbers refer to the chain shown, from its start. Numbers in names are those of the source.

T1: authentic Hsp26 from yeast (S. cerevisiae), P15992
T1 chain: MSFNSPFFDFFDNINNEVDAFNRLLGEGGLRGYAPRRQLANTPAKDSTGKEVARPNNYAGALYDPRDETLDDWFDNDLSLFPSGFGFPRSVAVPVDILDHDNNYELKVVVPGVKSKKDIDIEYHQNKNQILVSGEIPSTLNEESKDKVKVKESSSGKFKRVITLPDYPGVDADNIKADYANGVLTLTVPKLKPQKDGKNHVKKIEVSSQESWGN

B1: Hsp26 S47E (natural protein, S. cerevisiae)
chain: MGSFNSPFFDFFDNINNEVDAFNRLLGEGGLRGYAPRRQLANTPAKDETGKEVARPNNYAGALYDPRDETLDDWFDNDLSLFPSGFGFPRSVAVPVDILDHDNNYELKVVVPGVKSKKDIDIEYHQNKNQILVSGEIPSTLNEESKDKVKVKESSSGKFKRVITLPDYPGVDADNIKADYANGVLTLTVPKLKPQKDGKNHVKKIEVSSQESWGN
notes: Hsp26 of S. cerevisiae, phospho-mimetic mutant in pQE60::HSP26; source: E. coli HB101, purified (Q-Sepharose, Superdex200, Resource Q)
B2: Hsp26 wild-type (WT) protein, recombinant (natural protein, S. cerevisiae)
chain: B1 chain with E48S
notes: Hsp26, small heat shock protein of S. cerevisiae; HSP26 cloned into pQE60 with NcoI and HindIII, which adds a glycine after the start methionine; Forms an ensemble of oligomers, predominantly a 40mer; also called Hsp26 WT; source: E. coli HB101, purified (Q-Sepharose, Superdex200, Resource Q)
B3: Hsp26 T163E (natural protein, S. cerevisiae)
chain: B1 chain with E48S, T164E
notes: as for B1
B4: Hsp26 S144E (natural protein, S. cerevisiae)
chain: B1 chain with E48S, S145E
notes: as for B1
B5: Hsp26 S90E (natural protein, S. cerevisiae)
chain: B1 chain with E48S, S91E
notes: as for B1
B6: Hsp26 S47E/T48E (natural protein, S. cerevisiae)
chain: B1 chain with T49E
notes: Hsp26 of S. cerevisiae, phospho-mimetic double mutant in pQE60::HSP26; source: E. coli HB101, purified (Q-Sepharose, Superdex200, Resource Q)
B7: Hsp26 S208E/S211E (natural protein, S. cerevisiae)
chain: B1 chain with E48S, S209E, S212E
notes: Hsp26 of S. cerevisiae, phospho-mimetic double mutant in pQE60::HSP26; also called CTR double mutant; source: E. coli HB101, purified (Q-Sepharose, Superdex200, Resource Q)
B8: Hsp26 S211E (natural protein, S. cerevisiae)
chain: B1 chain with E48S, S212E
notes: as for B1
B9: authentic Hsp26 from yeast, P15992 1-214 (natural protein)
chain: T1 chain
B10: Hsp26 T42E (natural protein, S. cerevisiae)
chain: B1 chain with T43E, E48S
notes: as for B1
B11: Hsp26 T48E (natural protein, S. cerevisiae)
chain: B1 chain with E48S, T49E
notes: as for B1
B12: Hsp26 S208E (natural protein, S. cerevisiae)
chain: B1 chain with E48S, S209E
notes: as for B1
B13: Hsp26 S207E (natural protein, S. cerevisiae, UniProt P15992 1-214, looked up)
chain: B1 chain with E48S, S208E
notes: an additional glycine stands after the start methionine; phospho-mimetic mutant of the C-terminal region; predominant species a 40mer, one 3D class a 42mer; source: E. coli HB101, purified (Q-Sepharose, Superdex200, Resource Q)
B14: Hsp26 S207E (natural protein, S. cerevisiae)
chain: B1 chain with E48S, S208E
notes: as for B1

Biological target: the molecule itself
Assay: AUC; sedimentation velocity, 23 µM protein, 35,000 rpm (98,500 × g), 20 °C, PBS, absorbance at 280 nm, c(S) distribution in SEDFIT
Conditions: not given

Binder | binding result
B1 | binds

These binders were tested against Hsp26 FRET complex (5 µM LYI-labeled and 5 µM AIAS-labeled Hsp26 S5C, pre-formed at 40 °C) (S. cerevisiae) (UniProt P15992) (assay: FRET or BRET; subunit exchange: unlabeled Hsp26 in 39-fold molar excess added to the pre-formed FRET complex, 40 °C, decrease of acceptor fluorescence at 520 nm for 1500 s, exponential fit, kexchange = 1/t1). Conditions: not given.

exchange constant [s⁻¹] | Binder
0.0032 | B2
0.0036 | B3
0.0032 | B4
0.004 | B5
0.004 | B6
0.0036 | B7

Biological target: the molecule itself
Assay: SEC; analytical SEC-HPLC, Superdex200 increase 10/300GL, PBS, 0.5 ml/min, RT, 20 µl of a 20 µM protein solution loaded
Conditions: not given

Binder | binding result
B8 | binds

Biological target: T1, authentic Hsp26 from yeast (S. …)
Assay: cryo-EM structure; 2.0-3.3 mg/ml protein plunge-frozen, Titan Krios 300 kV, K2; 2D class averages (IMAGIC) compared with 40mer reprojections, 3D reconstruction in cryoSPARC
Conditions: remark: other sources report otherwise

stoichiometry N | Binder
40 | B9

Biological target: the molecule itself
Assay: CD thermal transition; far-UV CD at 218 nm, 12.5 µM protein in PBS, 20 to 90 °C at 1 K/min; the lower transition is taken as the disassembly of the oligomer
Conditions: not given

Binder | dissociation temperature of the oligomer [°C]
B2 | 42.1
B10 | < 40
B11 | < 40
B3 | 34.6 ± 0.9
B4 | 35.1 ± 0.1
B5 | < 40
B6 | 36.8
B7 | < 40
B12 | < 40

Biological target: the molecule itself
Assay: cryo-EM structure; S207E dataset; asymmetric heterogeneous refinement (3D classification) in cryoSPARC into 13 classes; class C13
Conditions: not given

Binder | stoichiometry N
B13 | 42

Biological target: the molecule itself
Assay: cryo-EM structure; 2.0-3.3 mg/ml protein plunge-frozen, Titan Krios 300 kV, K2; 2D class averages (IMAGIC) compared with 40mer reprojections, 3D reconstruction in cryoSPARC
Conditions: not given

Binder | fraction of particles representing 40mer views [%] | stoichiometry N
B2 | 48.9 | 40
B14 | 34.2 | 40
B6 | 7.3 | 40
